According to US20210063414A1, “METHODS FOR PREVENTING AND/OR TREATING BONE LOSS CONDITIONS BY MODULATING IRISIN” (Dana-Farber Cancer Institute, Inc., priority 2018, published 2021):

Columns and labels:
[1] = biological target: T1, MLO-Y4 cell surface proteins (Mus musculus, UniProt P61161); assay: Crosslinking/co-immunoprecipitation/mass spectrometry (TMT quantitative proteomics) to identify irisin receptors; assay type: binding; conditions: co-precipitated protein Actr2 (ARP2_MOUSE)
T1 construct: endogenous in cells; host or cells: MLO-Y4
Outline: (§1)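 Relative protein abundance came from 6-plex TMT MS3 quantitation on an Orbitrap Fusion Lumos, after in-gel trypsin digestion of Coomassie-stained SDS-PAGE lanes. Input was a Ni-NTA pulldown (250 mM imidazole elution) of lysates from murine MLO-Y4 cells. These cells were treated on ice with His-tagged irisin or adipsin (10 nM, 20 min) in serum-free medium, then crosslinked with 1.5 mM DTSSP for 30 min.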

[2] = biological target: T2, MLO-Y4 cell surface proteins (Mus musculus, UniProt O88492); assay: as above; assay type: binding; conditions: co-precipitated protein Plin4 (PLIN4_MOUSE)
T2 construct: endogenous in cells; host or cells: MLO-Y4
T2 sequence (O88492 1-1403): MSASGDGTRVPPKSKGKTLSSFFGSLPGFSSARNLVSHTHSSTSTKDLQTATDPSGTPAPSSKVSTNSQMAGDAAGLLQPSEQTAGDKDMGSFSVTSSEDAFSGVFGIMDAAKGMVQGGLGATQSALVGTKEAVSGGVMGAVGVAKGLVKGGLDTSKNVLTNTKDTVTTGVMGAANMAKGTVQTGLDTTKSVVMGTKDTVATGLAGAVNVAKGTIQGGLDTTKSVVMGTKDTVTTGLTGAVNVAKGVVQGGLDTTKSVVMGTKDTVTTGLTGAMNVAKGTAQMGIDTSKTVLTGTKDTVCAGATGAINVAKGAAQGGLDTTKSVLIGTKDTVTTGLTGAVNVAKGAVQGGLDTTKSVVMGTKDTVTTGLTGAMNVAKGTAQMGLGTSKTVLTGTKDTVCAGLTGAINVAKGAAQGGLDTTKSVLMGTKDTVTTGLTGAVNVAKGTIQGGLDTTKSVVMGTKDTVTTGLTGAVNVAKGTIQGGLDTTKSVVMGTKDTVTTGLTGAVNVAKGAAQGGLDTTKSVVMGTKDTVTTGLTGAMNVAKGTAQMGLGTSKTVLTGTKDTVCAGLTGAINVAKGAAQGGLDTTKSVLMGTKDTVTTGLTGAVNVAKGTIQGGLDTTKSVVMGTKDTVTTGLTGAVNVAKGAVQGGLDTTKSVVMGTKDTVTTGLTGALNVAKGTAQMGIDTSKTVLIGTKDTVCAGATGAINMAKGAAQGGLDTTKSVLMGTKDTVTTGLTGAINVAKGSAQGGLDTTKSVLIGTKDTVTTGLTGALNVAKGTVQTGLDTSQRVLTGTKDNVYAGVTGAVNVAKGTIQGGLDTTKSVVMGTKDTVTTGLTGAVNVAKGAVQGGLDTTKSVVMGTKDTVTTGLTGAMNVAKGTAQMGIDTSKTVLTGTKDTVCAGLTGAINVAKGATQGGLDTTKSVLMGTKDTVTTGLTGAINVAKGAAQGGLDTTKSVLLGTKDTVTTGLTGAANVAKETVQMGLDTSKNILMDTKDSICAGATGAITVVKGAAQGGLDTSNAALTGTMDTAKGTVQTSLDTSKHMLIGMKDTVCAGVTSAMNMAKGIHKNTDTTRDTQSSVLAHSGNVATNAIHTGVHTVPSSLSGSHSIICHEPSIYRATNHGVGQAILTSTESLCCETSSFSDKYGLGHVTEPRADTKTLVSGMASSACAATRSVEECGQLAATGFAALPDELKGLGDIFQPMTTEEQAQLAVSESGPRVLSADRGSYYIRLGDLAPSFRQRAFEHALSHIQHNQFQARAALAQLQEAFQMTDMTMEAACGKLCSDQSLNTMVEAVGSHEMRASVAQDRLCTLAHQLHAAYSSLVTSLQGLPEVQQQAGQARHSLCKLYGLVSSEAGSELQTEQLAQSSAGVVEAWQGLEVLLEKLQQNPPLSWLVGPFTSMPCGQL
Outline: as §1

TMT signal-to-noise ratio [1]: 153.626 | TMT signal-to-noise ratio [2]: 111.989
Substance: adipsin
